Measured values as given in the supplement of paper PMC11316812.
± gives the standard deviation of the averaged measurements.

Key:
[1] = tested on: hTERT-HMEC; experiment: percentage of EdU-negative (G0-arrested) nuclei per well, 72 h; higher = more G0 arrest; details: reference: sequence is the full UniProt precursor, the tested protein was the secreted form or ectodomain
[2] = tested on: MCF7; experiment: as above; details: reference: sequence is the full UniProt precursor, the tested protein was the secreted form or ectodomain
[3] = protein concentration 0.0305714 µM
[4] = protein concentration 0.305714 µM
[5] = protein concentration 0.0225 µM
[6] = protein concentration 0.00875 µM
[7] = protein concentration 0.0875 µM
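Note: secreted proteins added to cultured cells, EdU pulse at the end, nuclei found by Hoechst imaging, EdU status from nuclear versus surrounding ring intensity ratio, PBS as neutral control.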

**Q.** Which results are given for “MKHSLNALLIFLIITSAWGGSKGPLDQLEKGGETAQSADPQWEQLNNKNLSMPLLPADFHKENTVTNDWIPEGEEDDDYLDLEKIFSEDDDYIDIVDSLSVSPTDSDVSAGNILQLFHGKSRIQRLNILNAKFAFNLYRVLKDQVNTFDNIFIAPVGISTAMGMISLGLKGETHEQVHSILHFKDFVNASSKYEITTIHNLFRKLTHRLFRRNFGYTLRSVNDLYIQKQFPILLDFKTKVREYYFAEAQIADFSDPAFISKTNNHIMKLTKGLIKDALENIDPATQMMILNCIYFKGSWVNKFPVEMTHNHNFRLNEREVVKVSMMQTKGNFLAANDQELDCDILQLEYVGGISMLIVVPHKMSGMKTLEAQLTPRVVERWQKSMTNRTREVLLPKFKLEKNYNLVESLKLMGIRMLFDKNGNMAGISDQRIAIDLFKHQGTITVNEEGTQATTVTTVGFMPLSTQVRFTVDRPFLFLIYEHRTSCLLFMGRVANPSRS”?
**A.** percentage of EdU-negative [1, 3]: 6.41 ± 0.77%; percentage of EdU-negative [1, 4]: 22.5 ± 9.3%; percentage of EdU-negative [2, 3]: 27.6 ± 0.28%; percentage of EdU-negative [2, 4]: 30 ± 1.5%

**Q.** With “MEGAGPRGAGPARRRGAGGPPSPLLPSLLLLLLLWMLPDTVAPQELNPRGRNVCRAPGSQVPTCCAGWRQQGDECGIAVCEGNSTCSENEVCVRPGECRCRHGYFGANCDTKCPRQFWGPDCKELCSCHPHGQCEDVTGQCTCHARRWGARCEHACQCQHGTCHPRSGACRCEPGWWGAQCASACYCSATSRCDPQTGACLCHAGWWGRSCNNQCACNSSPCEQQSGRCQCRERTFGARCDRYCQCFRGRCHPVDGTCACEPGYRGKYCREPCPAGFYGLGCRRRCGQCKGQQPCTVAEGRCLTCEPGWNGTKCDQPCATGFYGEGCSHRCPPCRDGHACNHVTGKCTRCNAGWIGDRCETKCSNGTYGEDCAFVCADCGSGHCDFQSGRCLCSPGVHGPHCNVTCPPGLHGADCAQACSCHEDTCDPVTGACHLETNQRKGVMGAGALLVLLVCLLLSLLGCCCACRGKDPTRRPRPRRELSLGRKKAPHRLCGRFSRISMKLPRIPLRRQKLPKVVVAHHDLDNTLNCSFLEPPSGLEQPSPSWSSRASFSSFDTTDEGPVYCVPHEEAPAESRDPEVPTVPAEAPAPSPVPLTTPASAEEAIPLPASSDSERSASSVEGPGGALYARVARREARPARARGEIGGLSLSPSPERRKPPPPDPATKPKVSWIHGKHSAAAAGRAPSPPPPGSEAAPSPSKRKRTPSDKSAHTVEHGSPRTRDPTPRPPGLPEEATALAAPSPPRARARGRGPGLLEPTDAGGPPRSAPEAASMLAAELRGKTRSLGRAEVALGAQGPREKPAPPQKAKRSVPPASPARAPPATETPGPEKAATDLPAPETPRKKTPIQKPPRKKSREAAGELGRAGAPTL [Q96GP6]” as the sequence, how does the “percentage of EdU-negative” value [1, 5] read?
**A.** Its value is 3.85 ± 0.62%.

**Q.** What about the “percentage of EdU-negative” value ([1]; protein concentration 0.225 µM) of the same sequence?
**A.** Its value is 18.5 ± 6.1%.

**Q.** What about the “percentage of EdU-negative” value [2, 5] of the same sequence?
**A.** Its value is 25.7 ± 1.2%.

**Q.** And the “percentage of EdU-negative” value ([2]; protein concentration 0.225 µM)?
**A.** Its value is 36.9 ± 0.76%.

**Q.** Which “percentage of EdU-negative” value [1, 6] does the source give for “MVLWESPRQCSSWTLCEGFCWLLLLPVMLLIVARPVKLAAFPTSLSDCQTPTGWNCSGYDDRENDLFLCDTNTCKFDGECLRIGDTVTCVCQFKCNNDYVPVCGSNGESYQNECYLRQAACKQQSEILVVSEGSCATDAGSGSGDGVHEGSGETSQKETSTCDICQFGAECDEDAEDVWCVCNIDCSQTNFNPLCASDGKSYDNACQIKEASCQKQEKIEVMSLGRCQDNTTTTTKSEDGHYARTDYAENANKLEESAREHHIPCPEHYNGFCMHGKCEHSINMQEPSCRCDAGYTGQHCEKKDYSVLYVVPGPVRFQYVLIAAVIGTIQIAVICVVVLCITRKCPRSNRIHRQKQNTGHYSSDNTTRASTRLI [Q9UIK5]” here?
**A.** Its value is 5.34 ± 0.33%.

**Q.** And the “percentage of EdU-negative” value [1, 7]?
**A.** Its value is 11.1 ± 2.2%.

**Q.** And the “percentage of EdU-negative” value [2, 6]?
**A.** The value was 23.6 ± 4.7%.

**Q.** And the “percentage of EdU-negative” value [2, 7]?
**A.** Its value is 28.2 ± 2%.

**Q.** “MALTAHPSCLLALLVAGLAQGIRGPLRAQDLGPQPLELKEAFKLFQIQFNRSYLSPEEHAHRLDIFAHNLAQAQRLQEEDLGTAEFGVTPFSDLTEEEFGQLYGYRRAAGGVPSMGREIRSEEPEESVPFSCDWRKVASAISPIKDQKNCNCCWAMAAAGNIETLWRISFWDFVDVSVQELLDCGRCGDGCHGGFVWDAFITVLNNSGLASEKDYPFQGKVRAHRCHPKKYQKVAWIQDFIMLQNNEHRIAQYLATYGPITVTINMKPLQLYRKGVIKATPTTCDPQLVDHSVLLVGFGSVKSEEGIWAETVSSQSQPQPPHPTPYWILKNSWGAQWGEKGYFRLHRGSNTCGITKFPLTARVQKPDMKPRVSCPP” was tested. Which “percentage of EdU-negative” value [1, 5] did it give?
**A.** The value was 4.63 ± 1.3%.

**Q.** What about the “percentage of EdU-negative” value ([1]; protein concentration 0.225 µM) of the same sequence?
**A.** The value was 48.2 ± 4%.

**Q.** What about the “percentage of EdU-negative” value [2, 5] of the same sequence?
**A.** The value was 23.2 ± 3.5%.

**Q.** And the “percentage of EdU-negative” value ([2]; protein concentration 0.225 µM)?
**A.** The value was 32.1 ± 4.7%.

**Q.** Which results are given for “MKLLFPIFASLMLQYQVNTEFIGLRRCLMGLGRCRDHCNVDEKEIQKCKMKKCCVGPKVVKLIKNYLQYGTPNVLNEDVQEMLKPAKNSSAVIQRKHILSVLPQIKSTSFFANTNFVIIPNATPMNSATISTMTPGQITYTATSTKSNTKESRDSATASPPPAPPPPNILPTPSLELEEAEEQ [Q9H1M3]”?
**A.** percentage of EdU-negative [1, 5]: 4.86 ± 0.34%; percentage of EdU-negative ([1]; protein concentration 0.225 µM): 4.66 ± 0.73%; percentage of EdU-negative [2, 5]: 23.2 ± 1.2%; percentage of EdU-negative ([2]; protein concentration 0.225 µM): 25.3 ± 1.1%
